Source: patent publication US20110059095A1 (Regeneron, published 2011)
Where no end group is shown, it is not given here. The star is where a group is joined. Biotin = O=C1N[C@H]2[C@H](CS[C@H]2CCCCC(=O)*)N1

T1: Peptide B (human PAR-2), C-terminal biotinylated (Human, not fully specified)
T1 construct: also called Peptide B C-Term
T1 peptide: SLIGKVDGTSHVTGGGGGS-biotin

T2: Peptide B (human PAR-2), unbiotinylated (Human)
T2 construct: also called Peptide B No Biotin
T2 peptide: SLIGKVDGTSHVTG

T3: Peptide A (human PAR-2), unbiotinylated (Human)
T3 construct: also called Peptide A No Biotin
T3 peptide: GTNRSSKGRSLIGKVDGT

T4: Peptide A (human PAR-2), N-terminal biotinylated (Human, N-terminal biotin via G4S linker)
T4 construct: also called Peptide A N-Term
T4 peptide: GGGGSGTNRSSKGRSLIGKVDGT

T5: Peptide C (human PAR-2), C-terminal biotinylated (Human)
T5 construct: also called Peptide C C-Term
T5 peptide: SLIGKVGGGGS-biotin

T6: Peptide C (human PAR-2), N-terminal biotinylated (Human)
T6 construct: also called Peptide C N-Term
T6 peptide: Biotin-GGGGSSLIGKV

T7: Peptide B (human PAR-2), N-terminal biotinylated (Human)
T7 construct: also called Peptide B N-Term
T7 peptide: Biotin-GGGGSSLIGKVDGTSHVTG


Assays:
full length human PAR-2 [1] = target: T8, full length human PAR-2 (human, UniProt P55085 26-397); test: cell ELISA, 10 ug/ml antibody
T8 construct: overexpressed on HEK293-derived 293/D9 cells; also called 293/D9/hPAR-2rec cells
T8 sequence (P55085 26-397 G138A limits assumed): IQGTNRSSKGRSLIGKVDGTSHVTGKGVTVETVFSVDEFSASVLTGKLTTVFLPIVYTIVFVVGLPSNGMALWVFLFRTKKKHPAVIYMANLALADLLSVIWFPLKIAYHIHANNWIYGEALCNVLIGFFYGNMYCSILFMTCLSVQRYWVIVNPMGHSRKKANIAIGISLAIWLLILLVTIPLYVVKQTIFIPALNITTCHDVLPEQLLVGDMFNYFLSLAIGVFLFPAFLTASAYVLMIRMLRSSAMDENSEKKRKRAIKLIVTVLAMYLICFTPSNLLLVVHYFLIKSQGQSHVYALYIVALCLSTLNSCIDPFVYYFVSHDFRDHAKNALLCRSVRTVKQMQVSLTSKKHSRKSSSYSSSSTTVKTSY
Source text: HEK293 cells were transfected with an NF-κB-luciferase-IRES-eGFP reporter plasmid. […] A clonal cell line, named D9, having low background levels of luciferase activity and high levels of eGFP when induced with IL-1β was made by a series of successive sorts of cell populations using flow cytometry. The 293/D9 cell line was then separately transfected with human PAR-2 or mouse PAR-2 to create the stable cell lines 293/D9/h PAR-2rec and 293/D9/m PAR-2rec, respectively.
Binding of anti-PAR-2 antibodies to 293/D9/hPAR-2rec cells was determined by ELISA. 293/D9 and 293/D9/hPAR-2rec cells were plated at a density of 5×10⁴ cells/well in media and incubated overnight at 37° C. and 5% CO₂. Purified antibody was added to the cells to a final concentration of 10 μg/ml and incubated at room temperature for one hour. Cells were then fixed and washed before detection of bound antibodies with HRP conjugated anti-mouse IgG and developed by standard colorimetric response using TMB substrate. Absorbance was read at OD₄₅₀ for 0.1 second.

full length human PAR-2 [2] = target: T8, full length human PAR-2; test: cell-based or functional assay
[3] = target: T9, Peptide A (human PAR-2), C-terminal biotinylated (Human, C-terminal biotin via G4S linker); test: SPR, peptide immobilized
T9 construct: also called Peptide A C-Term
Protocol: (§1) In another series of experiments, equilibrium dissociation constants (KD values) for purified antibody binding to selected biotinylated and unbiotinylated forms of PAR-2 peptides were determined by surface kinetics using a real-time surface plasmon resonance biosensor assay. Neutravidin (Pierce, Rockford, Ill.) was covalently coupled to the surface of a Biacore™ C1 chip or CM5 chip using amine coupling chemistry. Biotinylated (N-Term or C-Term) PAR-2 peptides (Peptides A and B) were immobilized on the surface via the high affinity binding interaction between biotin and the amine coupled Neutravidin.
(§2) In a first experiment using this format, varying concentrations (ranging from 5 to 100 μg/ml) of purified antibody were injected at a rate of 50 μl/min over a surface coated with immobilized peptide at low-density (<1RU) for 300 seconds. Antibody-peptide binding and dissociation was monitored in real time 25° C.

[4] = target: T1, Peptide B (human PAR-2), C-terminal …; test: SPR, peptide immobilized
Protocol: as §1, §2

[5] = target: T2, Peptide B (human PAR-2), unbiotinylated; test: SPR, antibody captured
Protocol: (§3) Equilibrium dissociation constants (KD values) for antigen binding to selected purified PAR-2 antibodies were determined by surface kinetics using a real-time surface plasmon resonance biosensor assay. Antibody was captured on either a rabbit anti-mouse IgG polyclonal antibody (GE Healthcare, Piscataway, N.J.) surface or a goat anti-human IgG polyclonal antibody (Jackson Immuno Research Lab, West Grove, Pa.) surface created through direct amine chemical coupling to a BIACORE™ CM5 sensor chip to form a captured antibody surface. […] Antigen-antibody binding and dissociation were monitored in real time at room temperature. Kinetic analysis was performed to calculate KD and half-life of antigen/antibody complex dissociation (Table 10). For those antibodies where no T_{1/2} value is shown, steady state analysis was used to calculate the KD value. NB: no binding observed under current experimental conditions. ND: not determined.

[6] = target: T3, Peptide A (human PAR-2), unbiotinylated; test: SPR, antibody captured
Protocol: as §3

[7] = target: T4, Peptide A (human PAR-2), N-terminal …; test: peptide ELISA
Protocol: (§4) Anti-PAR-2 antibodies were tested for their ability to bind to the PAR-2 peptides. Various PAR-2 Peptides (Table 3) were coated onto 96-well plates at a concentration of 2 μg/ml and incubated overnight followed by blocking in a suitable blocking agent for one hour. […] Purified anti-PAR-2 antibodies were added to the plate coated with PAR-2 peptides to a final concentration ranging from 0.2 to 2.0 μg/ml and incubated for one hour at room temperature. Detection of bound antibodies was determined with Horse-Radish Peroxidase (HRP) conjugated anti-mouse or human IgG (Jackson Immuno Research Lab, West Grove, Pa.) and developed by standard colorimetric response using tetramethylbenzidine (TMB) substrate. Absorbance was read at OD₄₅₀ for 0.1 second.

[8] = target: T2, Peptide B (human PAR-2), unbiotinylated; test: peptide ELISA
Protocol: as §4

[9] = target: T5, Peptide C (human PAR-2), C-terminal …; test: peptide ELISA
Protocol: as §4

[10] = target: T9, Peptide A (human PAR-2), C-terminal …; test: peptide ELISA
Protocol: as §4

[11] = target: T3, Peptide A (human PAR-2), unbiotinylated; test: peptide ELISA
Protocol: as §4

[12] = target: T1, Peptide B (human PAR-2), C-terminal …; test: peptide ELISA
Protocol: as §4

[13] = target: T6, Peptide C (human PAR-2), N-terminal …; test: peptide ELISA
Protocol: as §4

[14] = target: T7, Peptide B (human PAR-2), N-terminal …; test: peptide ELISA
Protocol: as §4

[15] = target: T3, Peptide A (human PAR-2), unbiotinylated; test: SPR, antibody captured, steady state
Protocol: as §3

Row | Binder | A450 ratio (293/D9/hPAR-2rec to 293/D9 cells) (full length human PAR-2 [1]) | IC50, NF-kB-luciferase, 10 nM Human Trypsin 1 (full length human PAR-2 [2]) [nM] | IC50, NF-kB-luciferase, 10 nM Trypsin (full length human PAR-2 [2]) [nM] | IC50, NF-kB-luciferase, 20 nM Trypsin (full length human PAR-2 [2]) [nM] | IC50, NF-kB-luciferase, 75 nM Trypsin (full length human PAR-2 [2]) [nM] | IC50, NF-kB-luciferase, 250 nM Trypsin (full length human PAR-2 [2]) [nM] | Kd [3] [nM] | T1/2 [3] [min] | Kd [5] [nM] | T1/2 [5] [min] | Kd [6] [nM] | T1/2 [6] [min] | OD450 [7] [od] | OD450 [8] [od] | OD450 [9] [od] | OD450 [10] [od] | OD450 [11] [od] | OD450 [12] [od] | OD450 [13] [od] | OD450 [14] [od] | also measured
1 | H2M588N (antibody, V domains shown, chimeric: human variable, mouse constant domains) VH: EVQLLESGGGLVQPGGSLRLSCAASGFTFSSYAMTWVRQAPGKGLYWVSAISGGRGSAYYADSVKGRFTISRDNSKNTLYLQMNSLRAEDTAVYYCAKEGDSGYDLAYWGRGTLVTVSS VL: DIQMTQSPSSLSASVGDRVTITCRARQGISNNLAWLQQKPGKAPKSLIYAASSLQSGIPSKFSGSGSGTYFTLTISSLQPEDFATYYCQQYKSSPLTFGGGTKVEIK | 2.5 | 165 | 10.4 | 26.8 | 5.7 | 2.3 | 0.826 | 169 | 61.7 | 7.7 | 4.47 | 60.8 | 1 to 4 | 1 to 4 | 0 to 0.09 | 1 to 4 | 1 to 4 | 1 to 4 | 0 to 0.09 | 1 to 4 | IC50, NF-kB-luciferase, 30 nM Trypsin (full length human PAR-2 [2]): 33 nM; IC50, NF-kB-luciferase, 200 nM Factor Xa (full length human PAR-2 [2]): 45.3 nM; IC50, NF-kB-luciferase, 750 nM Lung Tryptase (full length human PAR-2 [2]): 1 nM; Kd [4]: 1.49 nM; T1/2 [4]: 140 min
2 | H2M591N (antibody, V domains shown, chimeric: human variable, mouse constant domains) VH: EVQLLESGGGLVQPGGSLRLSCATSGFTFSRYTMTWVRQAPGKGLFWVSGIGGSGGRAYYADSVKGRFTLSRDNSKNTLYLQMNSLRAEDTAVYYCAKEGDSGYDLDYWGRGTLVTVSS VL: DIQMTQYPSSLSASVGDRVTITCRARQGISNYLAWLQQKPGKAPKSLIYAASSLQRGVPSKFSGSGSGTDFTLTISSLQPEDSATYYCQQYKISPLTFGGGTKVEIK | 2.25 | 150 | 24.2 | 122 | – | 4.5 | 0.545 | 209 | 151 | 8.1 | 4.22 | 42.7 | 1 to 4 | 1 to 4 | 0 to 0.09 | 1 to 4 | 1 to 4 | 1 to 4 | 0 to 0.09 | 1 to 4 | IC50, NF-kB-luciferase, 200 nM Factor Xa (full length human PAR-2 [2]): 51.5 nM; IC50, NF-kB-luciferase, 750 nM Lung Tryptase (full length human PAR-2 [2]): 88.1 nM; Kd [4]: 1.82 nM; T1/2 [4]: 94 min
3 | H2M589N (antibody, V domains shown, chimeric: human variable, mouse constant domains) VH: EVQLLESGGGLVQPGGSLRLSCATSGFTFSRYTMTWVRQAPGKGLFWVSGIGGSGGRAYYADSVKGRFTLSRDNSKNTLYLQMNSLRAEDTAVYYCAKEGDSGYDLDYWGRGTLVTVSS VL: DIQMTQYPSSLSASVGDRVTITCRARQGISNYLAWLQQKPGKAPKSLIYAASSLQRGVPSKFSGSGSGTDFTLTISSLQPEDSATYYCQQYKISPLTFGGGTKVEIK | 2.03 | – | – | – | 3.7 | 6.3 | – | – | 128 | 7.3 | 3.75 | 51.3 | 1 to 4 | 1 to 4 | 0 to 0.09 | 1 to 4 | 1 to 4 | 1 to 4 | 0 to 0.09 | 1 to 4 | –
4 | H1M590N (antibody, V domains shown, chimeric: human variable, mouse constant domains) VH: EVQLVESGGGLVQPGRSLRLSCAASGFTFDDYAMHWVRQAPGKGLEWVSGITWNSGTMAYADSVKGRFTISRDNAKNSLYLQMNSLRAEDTALYYCAKENWAFDYWGQGTLVTVSS VL: not shown | 1.81 | – | – | – | – | – | 1.27 | 13 | – | – | – | – | 1 to 4 | 0 to 0.09 | 0 to 0.09 | 1 to 4 | 1 to 4 | 0 to 0.09 | 0 to 0.09 | 0 to 0.09 | binding result [4]: no binding (tested: 5 to 100 ug/ml antibody); Kd [15]: 173 nM
5 | H1M616N (antibody, V domains shown, chimeric: human variable, mouse constant domains) VH: EVQLVESGGGLAQPGRSLRVSCSASGFNFDDYAMHWVRQAPGKGLEWVSGISWNSGSRGYADSVKGRFTISRDNAKNSLYLQMNSLRAEDTALYYCVKENWAFEYWGQGTLVTVSS VL: DIVMTQTPLSSPVTLGQPASISCRSSHSLVHSDGSTYLSWLQQRPGQPPRLLIYKISNRFSGVPDRFSGSGAGTDFTLKISRVEAEDVGLYYCMQATQFPYTFGQGTKLEIK | 2.78 | – | – | – | – | – | – | – | – | – | – | – | 1 to 4 | 0 to 0.09 | 0 to 0.09 | 1 to 4 | 1 to 4 | 0 to 0.09 | 0 to 0.09 | 0 to 0.09 | Kd [15]: 144 nM
